What is called Kd is the free concentration of one partner at which half of the binding sites on the other are occupied at equilibrium, for simple one-to-one binding. Broadly, the koff is a measure of how fast the partners let go of each other. What is called kon is the second-order rate constant of association. In general, EC50 (read off the curve) refers to the concentration needed to bring the measured effect to its halfway point.

The values that follow come from patent US20260241018A1 (BIOCYTOGEN PHARMACEUTICALS BEIJING, published 2026).

One experiment addresses T1, h5T4-His protein (human, UniProt Q13641 32-355, limits assumed).
T1 construct: also called His-tagged human 5T4 protein; not shown: His tag
T1 sequence (looked up): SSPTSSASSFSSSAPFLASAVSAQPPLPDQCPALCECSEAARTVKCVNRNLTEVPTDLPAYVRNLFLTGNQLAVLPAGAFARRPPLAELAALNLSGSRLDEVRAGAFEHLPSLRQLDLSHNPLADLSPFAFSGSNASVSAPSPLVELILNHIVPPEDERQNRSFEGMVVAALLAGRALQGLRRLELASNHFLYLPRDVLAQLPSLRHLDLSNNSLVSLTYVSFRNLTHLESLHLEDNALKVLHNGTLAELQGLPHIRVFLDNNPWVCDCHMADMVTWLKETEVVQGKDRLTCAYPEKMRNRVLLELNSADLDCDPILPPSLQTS
As to the kind of experiment: epitope binding assay, h5T4-His captured; binder = analyte 2; competitor (analyte 1): 32E3. The procedure: Epitope binding assays were performed using ForteBio Octet system to determine whether two anti-5T4 antibodies target the same or overlapping epitopes. 1×HBS-EP+buffer (10 mM 4-(2-hydroxyethyl)-1-piperazineethanesulfonic acid (HEPES), 150 mM NaCl, 3 mM ethylenediaminetetraacetic acid (EDTA) and 0.05% P20, pH7.4) diluted from HBS-EP+buffer (10×) was used as the running buffer throughout the experiment. About 50 RU of h5T4-His protein was captured at a flow rate of 10 μL/min, and 200 nM of the tested antibody was injected at a flow rate of 30 μL/min to bind the ligand. Another comparison antibody was injected under the same conditions to determine whether the binding of different antibodies interfered with each other. The binding time was 180 s for each antibody.
The binding value of each antibody was obtained using Data Analysis HT 12.0. To quantify the interference of one antibody binding to another, a binding ratio was calculated to compare each pair of antibodies. The binding ratio is defined as the binding value of the second antibody (analyte 2), divided by the binding value of the first antibody (analyte 1). […] In general, antibody pairs that interfere with each other have the same or overlapping epitopes.

The target in experiment [1] is T2, His-tagged 5T4 protein of human (h5T4, ACRO Biosystems Inc., Cat #: TPG-H52E5) (human, UniProt Q13641 32-355).
T2 construct: Bought protein; not shown: His tag
T2 sequence (looked up): T1 sequence (looked up)
As to the kind of experiment: SPR (Biacore 8K), antibody captured on Protein A chip, His-tagged 5T4 as analyte. Here is the method: (§1) Purified anti-5T4 antibodies were diluted to 2 μg/mL and then injected into the Biacore™ 8K biosensor at 10 μL/min for about 50 seconds to achieve a desired protein density (e.g., about 50 response units (RU)). His-tagged 5T4 protein at a concentration of 200 nM was then injected at 30 μL/min for 180 seconds. Dissociation was monitored for 400 seconds. The chip was regenerated after the last injection of each titration with Glycine (pH 2.0), 30 μL/min for 30 seconds. For ISO control, an antibody targeting an irrelevant target protein was used.
(§2) As a person of ordinary skill in the art would understand, the same method with appropriate adjustments for parameters (e.g., antibody concentration) was performed for each tested antibody.
For orientation: SPR reads the build-up and loss of mass on a sensor chip optically.

Experiment [2] addresses T3, His-tagged 5T4 protein of monkey (fas5T4, ACRO Biosystems Inc., Cat #: TPG-C52H3) (monkey, UniProt Q4R8Y9 35-355).
T3 construct: Bought protein
T3 sequence: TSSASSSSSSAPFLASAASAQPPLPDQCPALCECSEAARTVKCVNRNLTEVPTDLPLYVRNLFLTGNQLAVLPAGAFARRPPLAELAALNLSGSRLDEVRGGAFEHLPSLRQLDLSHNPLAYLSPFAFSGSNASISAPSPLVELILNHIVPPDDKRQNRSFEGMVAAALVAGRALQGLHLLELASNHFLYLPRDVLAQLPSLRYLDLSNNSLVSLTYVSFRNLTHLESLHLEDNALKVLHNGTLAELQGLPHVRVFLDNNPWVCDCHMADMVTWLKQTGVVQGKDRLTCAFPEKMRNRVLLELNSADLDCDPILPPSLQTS
The experiment is described as above. Here is the method:
as §1, §2

The target in experiment [3] is T4, 5T4 on NCI-H226 cells, NCI-H2030 cells and HCC827 cells (UniProt Q13641 32-420, limits assumed).
T4 construct: whole, on cells
T4 sequence (looked up): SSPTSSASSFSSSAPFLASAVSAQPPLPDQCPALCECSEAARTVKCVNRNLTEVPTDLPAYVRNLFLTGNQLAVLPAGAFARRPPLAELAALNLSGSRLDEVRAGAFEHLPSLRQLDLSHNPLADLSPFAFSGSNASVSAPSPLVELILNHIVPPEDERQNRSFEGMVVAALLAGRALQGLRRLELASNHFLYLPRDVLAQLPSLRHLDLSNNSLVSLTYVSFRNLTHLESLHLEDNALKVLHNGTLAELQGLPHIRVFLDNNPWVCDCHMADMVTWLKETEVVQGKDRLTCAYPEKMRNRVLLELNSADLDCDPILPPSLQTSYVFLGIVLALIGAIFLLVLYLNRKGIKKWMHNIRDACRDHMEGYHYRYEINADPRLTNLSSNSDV
Kind of experiment: flow cytometry on NCI-H2030 cells, Alexa Fluor 647 anti-human IgG Fc secondary antibody, MFI. Here is the method: NCI-H226 cells, NCI-H2030 cells or HCC827 cells were plated in a 96-well plate at a density of 2×10⁵ cells/well. Serially diluted purified anti-5T4 antibody 32G1 or the positive control PF06263507 analog-SI (maximum concentration: 20 μg/mL, 2-fold dilutions, 12 gradients) were added to each well and were incubated at 4° C. for 30 minutes. Then, after one wash with PBS, the cells were incubated with the secondary antibody Alexa Fluor® 647 anti human IgG Fcγ (Jackson ImmunoResearch Laboratories, Inc., Cat #: 109-606-170) at 4° C. for 15 minutes before flow cytometry analysis.
The cells were collected, and the mean fluorescence intensity (MFI) was determined.
On the technique in general: A flow cytometer gives signals particle by particle.

The target of experiment [4] is T5, human 5T4 expressed on CHO-S cells (CHO-h5T4 cells) (human, UniProt Q13641 32-355).
T5 sequence: T1 sequence (looked up)
As to the kind of experiment: flow cytometry, CHO-h5T4 cells. Here is the method: CHO-h5T4 cells, CHO-m5T4 cells, CHO-fas5T4 cells or CHO-d5T4 cells were transferred to a 96-well plate at a density of 2×10⁵ cells/well respectively. The anti-5T4 antibodies were added to the 96-well plate, and incubated at 4° C. for 30 min. Then, the cells were incubated with the secondary antibody anti-hlgG-Fc-Alex Flour 647 (RL1-H) (Jackson ImmunoResearch Laboratories, Inc., Cat #: 109-606-170) at 4° C. in the dark for 15 minutes before flow cytometry analysis.

B1: 32G1 (antibody, V domains shown)
VH: QVQLVQSGGGLVKPGGSLRLSCVASGFTFSDYYMNWVRQAPGKGLEWISYVGTESIYTYYADTVKGRFTISRDNAKNSLYLQMNSLRAEDTALYYCARARDYNLYGMDVWGQGTTVTVSS
VL: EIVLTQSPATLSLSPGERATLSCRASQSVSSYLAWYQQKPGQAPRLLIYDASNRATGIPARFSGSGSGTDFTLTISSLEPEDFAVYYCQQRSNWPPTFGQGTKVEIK
notes: also called anti-5T4 antibody 32G1
In the case of B1, the binding ratio with h5T4-His protein was 0.89. In experiment [1], this molecule showed an equilibrium dissociation constant (Kd) of 368 nM, a koff of 0.0249 s⁻¹ and a kon of 67700 M⁻¹ s⁻¹. Besides, in experiment [2], the equilibrium dissociation constant (Kd) turned out to be 70.1 nM, the koff stood at 12.3 s⁻¹ and the on-rate constant (kon) turned out to be 1.75e+08 M⁻¹ s⁻¹. The “EC50 (read off the curve)” value in experiment [3] is about 0.2 µg/mL. The “Percentage of Positive Cells” value in experiment [4] is 56.5%.
